Experimental data taken from patent US20240423474A1, “SYSTEM AND METHOD FOR INTRAOPERATIVE LIFETIME IMAGING” (The General Hospital Corporation, priority 2021, published 2024).

Key:
[1] = several recent clinical trials; cited from earlier work
FaDu cells = assay: Confocal FLIM of FaDu cells incubated with imaging probes; format: cell-based; details: 100 μg probe, 2 hours incubation
Description: Also, a […] 8 FALCON (Leica, Germany) FLIM system was used for NIR FLIM of 10-μm thin tissue sections (murine tumors and clinical specimens). Imaging was performed using 730 nm excitation with 750 nm notch filter and detected with a HyD R detector operating within 770-850 nm range. A 10×, 0.4 NA objective was used for image collection and digital images with 512×512 pixels (2.275 μm/pixel), 4 line repetitions and 4 line averages were obtained. TD data was collected using time-correlated single photon counting.
For in vitro experiments, FaDu cells were plated at 0.2×10^6 cells per well in a 12-well plate containing poly-D-lysine coated glass coverslips and were allowed to adhere to the coverslips for 24 hours. […] After probe incubation, cells were fixed in 4% para-formaldehyde (PFA) and mounted with ProLong Gold Antifade medium (ThermoFisher Scientific, Waltham, Massachusetts, United States) for confocal FLIM.
For the FLIM and IHC image analysis, the FALCON/FLIM software was used to collect and analyze the FLIM data. Lifetime values at each pixel location was calculated by using a single exponential fitting of the fluorescence decay curves. […] IHC image ROIs were analyzed by color deconvolution using the IHC Tool Box in ImageJ (NIH, Version 1.48u) to extract EGFR positive pixels within each ROI. […] Corresponding FLIM image ROIs were analyzed by averaging FLT values above 0.3 ns. […]

[2] = Widefield FLT of probes in culture media and stock solution in PBS; format: physicochemical
Source text: In accordance with one particular and non-limiting study, for widefield time-domain imaging, a system akin that of FIG. 1 was used that included a Supercontinuum laser and tunable filter (EXR-20, SuperK Varia, NKT Photonics, 80 MHz repetition rate; 400-850 nm tuning range) providing 770±30 nm excitation, a multimode fiber (Thorlabs, Newton, New Jersey, United States) delivering light to the sample, and a gated intensified CCD (LaVision, Picostar, 500 V gain, 0.1 to 1 second integration time, 150 ps steps, 256×344 pixels after 4×4 hardware binning). A digital micromirror device was used to expand the output of the optical fiber and delivered to the surface of the animal. The average total power across the illumination area (approximately 6×8-cm) was 10 to 20 mW. Fluorescence was collected in reflectance mode using an 835/70-nm band-pass filter. TD fluorescence imaging was performed with a gate width of 600 ps and 150 ps steps for a total duration of approximately 6 ns per laser duty cycle of 12.5 ns. […] Animals were sacrificed after imaging and tumors were immediately frozen in optimal cutting temperature (OCT) compound for fluorescence lifetime imaging microscopy (FLIM), histology and immunohistochemical (IHC) staining.
For the widefield TD data analysis, TD fluorescence images were analyzed in MATLAB (MathWorks, Natick, Massachusetts, United States) using a custom software. […]

In the case of “panitumumab-IRDye800CW: conjugate of the FDA approved therapeutic antibody for the epidermal growth factor receptor (EGFR), panitumumab, with IRdye800CW, an NIR dye”, the safety in humans [1] is given as “safe for human use”, the “probe uptake in cells” value (FaDu cells) is given as “higher probe uptake” and the “FLT in culture media” value ([2]; culture media collected after incubation with cancer cells) is given as 0.58 ns. For the same substance, the “FLT of stock solution in PBS” value ([2]; stock solution in PBS) was 0.58 ns.
